Measured values reported in paper PMC3107930.

Target: motavizumab Fab
Assay: SPR

Substance: RSV F peptide (motavizumab epitope peptide)
- Kd: 241 nM
